Source: PMC5768801, “The PII signaling protein from red algae represents an evolutionary link between cyanobacterial and Chloroplastida PII proteins” (Scientific Reports, 2018)

Substrate: CC(=O)N[C@@H](CCC(=O)O)C(=O)O
Test: purified protein, by the assay type
Conditions: pH 7.5

B1: ScNAGK (Synechocystis sp. PCC 6803 substr. Kazusa) (protein)
chain: MSSTQDYIGEEAATRVKILSEALPYIQHFAGRTVVVKYGGAAMKDSNLKDKVIRDIVFMASVGIRPVVVHGGGPEINTWLDKVGIEPQFKDGLRVTDAATMDIVEMVLVGRVNKELVNLINQAGGKAVGLCGKDGQLMTARTMTNKDVGFVGEVSSVDARVVETLVKSGYIPVISSVAADEFGQAHNINADTCAGELAAALGAEKLILLTDTRGILRDYKDPSTLIHKLDIQQARELIGSGIVAGGMIPKVTCCVRSLAQGVRAAHILDGRLPHALLLEVFTDLGIGSMIVASGYDL
B1 was tested, and the Km was 16.23 mM.
